Measurements from IntAct's records for PubMed 21460798.

B1: APC/C-CDH1 modulator 1 (Saccharomyces cerevisiae), Q08981 (parent)
chain: MISPSKKRTILSSKNINQKPRAVVKGNELRSPSKRRSQIDTDYALRRSPIKTIQISKAAQFMLYEETAEERNIAVHRHNEIYNNNNSVSNENNPSQVKENLSPAKICPYERAFLREGGRIALKDLSVDEFKGYIQDPLTDETIPLTLPLGDKKISLPSFITPPRNSKISIFFTSKHQGQNPETKISRSTDDVSEKKVVRKLSFHVYEDE
partner: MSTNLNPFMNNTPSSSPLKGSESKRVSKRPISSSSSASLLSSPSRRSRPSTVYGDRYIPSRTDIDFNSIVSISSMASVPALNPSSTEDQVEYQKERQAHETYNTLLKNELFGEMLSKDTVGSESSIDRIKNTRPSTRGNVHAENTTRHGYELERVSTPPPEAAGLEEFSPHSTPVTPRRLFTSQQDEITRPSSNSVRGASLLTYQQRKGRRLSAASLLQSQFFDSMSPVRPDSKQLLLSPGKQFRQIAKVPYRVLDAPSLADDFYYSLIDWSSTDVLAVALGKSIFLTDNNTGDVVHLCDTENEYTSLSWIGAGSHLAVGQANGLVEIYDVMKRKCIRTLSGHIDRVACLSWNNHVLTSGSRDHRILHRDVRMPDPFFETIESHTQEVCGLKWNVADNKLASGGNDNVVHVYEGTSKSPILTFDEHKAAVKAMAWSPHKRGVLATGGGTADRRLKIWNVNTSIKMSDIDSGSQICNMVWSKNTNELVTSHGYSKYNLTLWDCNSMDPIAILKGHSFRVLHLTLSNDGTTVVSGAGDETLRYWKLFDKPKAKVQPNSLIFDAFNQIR

Variants of: B1
Details: with cdh1_yeast CDH1, P53197

MISPSKKRTILSSKNINQKPRAVVKGNELRSPSKRRSQIDTDYALRRSPIKTIQISKAAQFMLYEETAEERNIAVHRHNEIYNNNNSVSNENNPSQVKEALSPAKICPYERAFLREGGRIALKDLSVDEFKGYIQDPLTDETIPLTLPLGDKKISLPSFITPPRNSKISIFFTSKHQGQNPETKISRSTDDVSEKKVVRKLSFHVYEDE [N100A] was tested. Which “effect of a mutation on the interaction” value did it give?
Its value is “disrupting interaction”.

With MISPSKKRTILSSKNINQKPRAVVKGNELRSPSKRRSQIDTDYALRRSPIKTIQISKAAQFMLYEATAEERNIAVHRHNEIYNNNNSVSNENNPSQVKENLSPAKICPYERAFLREGGRIALKDLSVDEFKGYIQDPLTDETIPLTLPLGDKKISLPSFITPPRNSKISIFFTSKHQGQNPETKISRSTDDVSEKKVVRKLSFHVYEDE [E66A] as the variant, how does the “effect of a mutation on the interaction” value read?
Its value is “disrupting interaction”.

How did the “effect of a mutation on the interaction” value turn out when MISPSKKRTILSSKNINQKPRAVVKGNELRSPSKRRSQIDTDYALRRSPIKTIQISKAAQFMLYDETAEERNIAVHRHNEIYNNNNSVSNENNPSQVKENLSPAKICPYERAFLREGGRIALKDLSVDEFKGYIQDPLTDETIPLTLPLGDKKISLPSFITPPRNSKISIFFTSKHQGQNPETKISRSTDDVSEKKVVRKLSFHVYEDE [E65D] was run?
Its value is “disrupting interaction”.

MISPSKKRTILSSKNINQKPRAVVKGNELRSPSKRRSQIDTDYALRRSPIKTIQISKAAQFMLYEETAEERNIAVHRHNEIYNNNNSVSNENNPSQVAENLSPAKICPYERAFLREGGRIALKDLSVDEFKGYIQDPLTDETIPLTLPLGDKKISLPSFITPPRNSKISIFFTSKHQGQNPETKISRSTDDVSEKKVVRKLSFHVYEDE [K98A] was tested. Which “effect of a mutation on the interaction” value did it give?
The value was “disrupting interaction”.

How did the “effect of a mutation on the interaction” value turn out when MISPSKKRTILSSKNINQKPRAVVKGNELRSPSKRRSQIDTDYALRRSPIKTIQISKAAQFMLYEETAEERNIAVHRHNEIYNNNNSVSNENNPSQVKENLSPAKICPYERAFLREGGAIALKDLSVDEFKGYIQDPLTDETIPLTLPLGDKKISLPSFITPPRNSKISIFFTSKHQGQNPETKISRSTDDVSEKKVVRKLSFHVYEDE [R119A] was run?
Its value is “disrupting interaction”.

Variants of: B1
Details: with cdh1_yeast CDH1, P53197
Remark: another data set of the same source

With MISPSKKRTILSSKNINQKPRAVVKGNELRSPSKRRSQIDTDYALRRSPIKTIQISKAAQFMLYEATAEERNIAVHRHNEIYNNNNSVSNENNPSQVKENLSPAKICPYERAFLREGGRIALKDLSVDEFKGYIQDPLTDETIPLTLPLGDKKISLPSFITPPRNSKISIFFTSKHQGQNPETKISRSTDDVSEKKVVRKLSFHVYEDE [E66A] as the variant, how does the “effect of a mutation on the interaction” value read?
The value was “decreasing interaction”.

With MISPSKKRTILSSKNINQKPRAVVKGNELRSPSKRRSQIDTDYALRRSPIKTIQISKAAQFMLYAETAEERNIAVHRHNEIYNNNNSVSNENNPSQVKENLSPAKICPYERAFLREGGRIALKDLSVDEFKGYIQDPLTDETIPLTLPLGDKKISLPSFITPPRNSKISIFFTSKHQGQNPETKISRSTDDVSEKKVVRKLSFHVYEDE [E65A] as the variant, how does the “effect of a mutation on the interaction” value read?
Its value is “decreasing interaction”.

How did the “effect of a mutation on the interaction” value turn out when MISPSKKRTILSSKNINQKPRAVVKGNELRSPSKRRSQIDTDYALRRSPIKTIQISKAAQFMLYEETAAERNIAVHRHNEIYNNNNSVSNENNPSQVKENLSPAKICPYERAFLREGGRIALKDLSVDEFKGYIQDPLTDETIPLTLPLGDKKISLPSFITPPRNSKISIFFTSKHQGQNPETKISRSTDDVSEKKVVRKLSFHVYEDE [E69A] was run?
The value was “decreasing interaction”.

Variants of: B1
Details: with cdh1_yeast CDH1, P53197
Remark: another data set of the same source

For MISPSKKRTILSSKNINQKPRAVVKGNELRSPSKRRSQIDTDYALRRSPIKTIQISKAAQFMLYEDTAEERNIAVHRHNEIYNNNNSVSNENNPSQVKENLSPAKICPYERAFLREGGRIALKDLSVDEFKGYIQDPLTDETIPLTLPLGDKKISLPSFITPPRNSKISIFFTSKHQGQNPETKISRSTDDVSEKKVVRKLSFHVYEDE [E66D], which “effect of a mutation on the interaction” value is on record?
The value was “disrupting interaction”.

MISPSKKRTILSSKNINQKPRAVVKGNELRSPSKRRSQIDTDYALRRSPIKTIQISKAAQFMLYAETAEERNIAVHRHNEIYNNNNSVSNENNPSQVKENLSPAKICPYERAFLREGGRIALKDLSVDEFKGYIQDPLTDETIPLTLPLGDKKISLPSFITPPRNSKISIFFTSKHQGQNPETKISRSTDDVSEKKVVRKLSFHVYEDE [E65A] was tested. Which “effect of a mutation on the interaction” value did it give?
The value was “disrupting interaction”.

How did the “effect of a mutation on the interaction” value turn out when MISPSKKRTILSSKNINQKPRAVVKGNELRSPSKRRSQIDTDYALRRSPIKTIQISKAAQFMLYEETAAERNIAVHRHNEIYNNNNSVSNENNPSQVKENLSPAKICPYERAFLREGGRIALKDLSVDEFKGYIQDPLTDETIPLTLPLGDKKISLPSFITPPRNSKISIFFTSKHQGQNPETKISRSTDDVSEKKVVRKLSFHVYEDE [E69A] was run?
The value was “disrupting interaction”.

Variants of: B1
Details: with cdh1_yeast CDH1, P53197
Remark: another data set of the same source

With MISPSKKRTIDSSKNINQKPRAVVKGNELRSPSKRRSQIDTDYALRRSPIKTIQISKAAQFMLYEETAEERNIAVHRHNEIYNNNNSVSNENNPSQVKENLSPAKICPYERAFLREGGRIALKDLSVDEFKGYIQDPLTDETIPLTLPLGDKKISLPSFITPPRNSKISIFFTSKHQGQNPETKISRSTDDVSEKKVVRKLSFHVYEDE [L11D] as the variant, how does the “effect of a mutation on the interaction” value read?
The value was “disrupting interaction”.
